Assay results as given in patent US20210338733A1.

Target: CD19 on CD19 positive target cell lines (UniProt P15391)
Assay: cell-based or functional assay

CD19 on CD19 positive target cell lines, sequence (P15391 20-556 limits assumed): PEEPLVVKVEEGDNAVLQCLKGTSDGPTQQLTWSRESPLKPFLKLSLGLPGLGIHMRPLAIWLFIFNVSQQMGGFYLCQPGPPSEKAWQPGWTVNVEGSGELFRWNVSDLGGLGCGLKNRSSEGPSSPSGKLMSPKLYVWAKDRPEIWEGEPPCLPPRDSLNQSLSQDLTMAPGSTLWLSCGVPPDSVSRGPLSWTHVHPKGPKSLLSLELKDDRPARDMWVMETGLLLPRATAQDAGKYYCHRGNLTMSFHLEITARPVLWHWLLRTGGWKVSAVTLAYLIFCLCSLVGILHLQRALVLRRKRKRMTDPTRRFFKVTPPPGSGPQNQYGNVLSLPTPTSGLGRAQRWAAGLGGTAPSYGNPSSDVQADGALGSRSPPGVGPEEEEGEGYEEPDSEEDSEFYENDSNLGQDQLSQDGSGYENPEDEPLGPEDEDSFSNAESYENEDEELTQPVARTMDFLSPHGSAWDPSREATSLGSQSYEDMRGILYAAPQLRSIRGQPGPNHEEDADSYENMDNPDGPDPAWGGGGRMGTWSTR

## CD19 CAR as expressed on CART-19 cells (anti-CD19 FMC63 scFv, human CD8α hinge and transmembrane, human 4-1BB and CD3ζ) (receptor)
  CD40L expression by CD4+ CAR T cells (flow cytometry, 24 hours of coincubation) (fold of the upregulation by CART-TnMUC1): 2
